According to US11584772B2, “N4-modified cytidine nucleotides and their use” (VILNIUS UNIVERSITY, priority 2017, dated 2023):

Legend:
NLRC4 inflammasome = NLRC4 inflammasome (Homo sapiens, UniProt Q9NPP4); details: cited from earlier work
[1] = cited from earlier work
[2] = test system: platelets and neutrophils; details: cited from earlier work
[3] = mice; cited from earlier work
[4] = hydrolysis of the amide bond of modified dCTP by purified recombinant proteins (amidase activity); type: biochemical; details: purified His-tagged recombinant protein, 37° C., various buffer solutions
Procedure: (§1) Then recombinant proteins (EST, D6 and YqfB) having polyhystidine-tag at the N-terminus were purified by affinity chromatography, enzymatic activities of each protein were estimated.
All three selected proteins are able to hydrolyse the amide bond of N^4-modified cytidine nucleotide. The hydrolysis reaction proceeds in various buffer solutions at 37° C. Depending on the concentration of purified protein enzymatic reaction lasts from several minutes to several hours. […] Moreover, these proteins are capable of hydrolysing not only the amide bond of modified dCTP but also the amide bond of modified cytidine.

[5] = esterase activity of purified recombinant proteins; type: biochemical; details: purified His-tagged recombinant protein
Description: as §1

NLRC4 inflammasome, sequence (Q9NPP4 whole entry): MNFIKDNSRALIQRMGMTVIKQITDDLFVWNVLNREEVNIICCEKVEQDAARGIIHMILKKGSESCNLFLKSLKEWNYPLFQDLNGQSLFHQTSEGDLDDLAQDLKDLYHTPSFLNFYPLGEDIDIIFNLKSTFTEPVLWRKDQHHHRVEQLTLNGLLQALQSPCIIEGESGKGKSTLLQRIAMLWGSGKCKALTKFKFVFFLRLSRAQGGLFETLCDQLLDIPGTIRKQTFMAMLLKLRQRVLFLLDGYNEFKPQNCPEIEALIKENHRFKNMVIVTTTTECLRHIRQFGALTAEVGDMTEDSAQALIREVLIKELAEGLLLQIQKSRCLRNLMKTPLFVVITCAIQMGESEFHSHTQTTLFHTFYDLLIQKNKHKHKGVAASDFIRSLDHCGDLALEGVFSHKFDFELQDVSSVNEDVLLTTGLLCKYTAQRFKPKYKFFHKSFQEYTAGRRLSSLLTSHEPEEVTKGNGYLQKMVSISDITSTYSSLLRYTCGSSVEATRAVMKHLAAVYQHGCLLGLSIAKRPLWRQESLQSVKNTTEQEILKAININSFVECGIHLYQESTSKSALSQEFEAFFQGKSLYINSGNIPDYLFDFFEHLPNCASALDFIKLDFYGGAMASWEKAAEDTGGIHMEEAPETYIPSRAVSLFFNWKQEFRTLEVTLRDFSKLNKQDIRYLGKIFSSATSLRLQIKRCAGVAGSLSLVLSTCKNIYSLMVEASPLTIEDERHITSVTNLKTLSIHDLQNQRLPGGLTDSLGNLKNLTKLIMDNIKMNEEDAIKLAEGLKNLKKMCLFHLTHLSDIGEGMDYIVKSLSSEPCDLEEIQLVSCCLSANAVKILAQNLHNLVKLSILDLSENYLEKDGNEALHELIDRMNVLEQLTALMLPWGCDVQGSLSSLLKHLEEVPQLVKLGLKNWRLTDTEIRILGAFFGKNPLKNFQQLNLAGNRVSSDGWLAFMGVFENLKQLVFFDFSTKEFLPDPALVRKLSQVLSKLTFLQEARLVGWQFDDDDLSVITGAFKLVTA

Molecule | activation of the NLRC4 inflammasome (NLRC4 inflammasome) | production of IL-1μ [1] | activation of platelets and neutrophils [2] | blood pressure [3] | hydrolysis of the amide bond of modified dCTP (activity of amidase) [4] | esterase activity [5]
CC(=O)Nc1ccn([C@@H]2O[C@H](CO)[C@@H](O)[C@H]2O)c(=O)n1 [N^4-acetyl-cytidine] | activates the NLRC4 inflammasome | induces the production of IL-1μ | activates platelets and neutrophils | elevates blood pressure in mice |  | 
D6: recombinant protein selected from metagenomic library, polyhystidine-tag at the N-terminus; amidase and esterase (protein, N-terminal His tag; Metagenomic origin, recombinant protein selected from metagenomic library, polyhystidine-tag at the N-terminus; amidase and esterase) MEQLKFQKNWNNKCSCDFFTTIRLKGPKYTVGKELEMRIYKGGVFQNHGMIRVASLRPIQLHQINEWISRLDSGLSPEELRSELFYMYKDKVADVNKVDFYLILCERVKSKPIQNALFSTESTPAHD |  |  |  |  | hydrolyse the amide bond of modified dCTP | behave as esterases
EST: recombinant protein selected from metagenomic library, polyhystidine-tag at the N-terminus; amidase and esterase (protein, N-terminal His tag; Metagenomic origin, recombinant protein selected from metagenomic library, polyhystidine-tag at the N-terminus; amidase and esterase) MSSLFIGQVFAKTPEVQTSDLTGNTTCSNLVGMVIPADEIGLPTSGATITSATLKIVEDGAIKDAEYCEVLGAIHPVDPTAPDINFQVNLPTNWNKKFLQFGGGYFNGTVRTGLGNPPAGDRKLGKNTPLAQGYVTFGSDSGNSTAPLDASFGMNDEALKNFAGDQLKKTKDVALALANVRYNAVPDQVYFAGGSEGGREGLFIVQNFPDEYDGVISVYPVLNWIPKALKDNRDAQALYKNDGEGWISPEENDLINETVFKACDSLDGVKDGIISNTSECAEKEDKILDTLSESLSEKQIEVIKSFNGPMEFDIQLANDFTTMPGYSQLQGADIGRLFGTRPIPGVPPVVSESVGHVIDEQDALMGVYSDQVIRYKITRNPDFNTLTFDPNEYREEILKASNLLDVTDPNISEFRENGGKLILVHGTEDEMVAPQGTSDYYSKLVNEFGQESLDEFAQYYLVPGFSHGGGNFTMSANLLGALDAWVVNGDVPSNLVAEDQNSATFGRTRPLCEYPTYPQYNGSGDVNSAASFTCLKADKDKDISASDIQKLIEKFEVDGEFANHGTARSLQAHLDILIKLESQERETVDQIVKHTQKFIKLLDNHKKNGKITDHAYNTLKELAESYIKQIK |  |  |  |  | hydrolyse the amide bond of modified dCTP | behave as esterases
YqfB: recombinant protein selected from metagenomic library, polyhystidine-tag at the N-terminus; amidase and esterase (protein, listed as Escherichia coli, N-terminal His tag, recombinant protein selected from metagenomic library, polyhystidine-tag at the N-terminus; amidase and esterase) MQPNDITFFQRFQDDILAGRKTITIRDESESHFKTGDVLRVGRFEDDGYFCTIEVTATSTVTLDTLTEKHAEQENMTLTELKKVIADIYPGQTQFYVIEFKCL |  |  |  |  | hydrolyse the amide bond of modified dCTP | behave as esterases
